Test results published in the supplement of paper PMC9732359.
± gives the uncertainty stated by the source.

Test: protein stability index of a GFP-peptide fusion (yeast GPS) (PSI 1-4); higher = more stable; sorted into four equal gates, so the index is relative within each strain
Outline: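 Mid-log yeast cultures in leucine-free medium, carrying a pooled plasmid library, were sorted into four equal gates by their GFP/Cherry fluorescence ratio. Each plasmid expressed Cherry along with GFP fused upstream of a tiled 17-residue yeast protein peptide. Plasmids recovered from each gate were PCR-amplified and Illumina-sequenced, with reads assigned to strains by barcodes. The protein stability index was obtained by summing each gate's read frequency weighted by its gate number.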

Sequence | protein stability index (doa10∆) | protein stability index (pdr5∆) | protein stability index (san1∆) | protein stability index (ubr1∆)
LSILNEIKKVTQIVAKF [SIN4] | 3.13 ± 0.16 | 2.39 ± 0.14 | 2.37 ± 0.11 | 2.87 ± 0.091
LSKLEKALDRHEFFIAN [SRP68] | 2.66 ± 0.055 | 2.61 ± 0.045 | 2.55 ± 0.049 | 2.64 ± 0.047
LSLYSTDLENSSLFQEK [ECM29] | 2.95 ± 0.069 | 2.81 ± 0.077 | 3 ± 0.053 | 2.77 ± 0.046
LSMNIAPRLRLEDIFQQ [RET1] | 2.06 ± 0.05 | 1.92 ± 0.038 | 1.98 ± 0.057 | 2.01 ± 0.037
LSNLHESNKRYRFFKKI [SNF12] | 2.79 ± 0.12 | 2.68 ± 0.081 | 2.9 ± 0.08 | 2.24 ± 0.065
LSQNESTRASTVPNLPT [ISW2] | 2.17 ± 0.056 | 2.5 ± 0.063 | 2.46 ± 0.045 | 2.6 ± 0.048
LSRKPSDNKKRSGSNAA [RPC82] | 2.92 ± 0.06 | 3.31 ± 0.064 | 3.03 ± 0.045 | 3.03 ± 0.044
LSSDEKRELLKRYRLKE [RPB5] | 3.08 ± 0.2 | 3.27 ± 0.17 |  | 3.52 ± 0.14
LSSELDSNKTLLHNHLK [SMC2] | 3.21 ± 0.059 | 3.26 ± 0.058 | 3.17 ± 0.048 | 3.2 ± 0.039
LSTSVGWKYEDVVAKLE [RPL16A] | 3.44 ± 0.11 | 3.29 ± 0.21 | 3.5 ± 0.14 | 3.53 ± 0.19
LTALGKEKEKEREEAEK [MED2] | 1.3 ± 0.23 | 1.43 ± 0.16 |  | 1.32 ± 0.15
LTDHRKETWLHELSSSH [SRB8] |  | 3.58 ± 0.19 |  | 2.76 ± 0.14
LTDLDSPSEFVDVAIPC [RPS0A] | 2.77 ± 0.091 | 2.46 ± 0.073 | 2.31 ± 0.077 | 2.56 ± 0.063
LTEGGSILEEKIAVLNN [SMC1] | 3.31 ± 0.22 | 2.85 ± 0.15 | 3.32 ± 0.11 | 2.87 ± 0.28
LTESQTETYISDLVNQG [RPN5] | 3.18 ± 0.076 | 3.38 ± 0.071 | 3.12 ± 0.051 | 3.21 ± 0.071
LTFNSKNIQSKDSYINA [FAS2] | 2.84 ± 0.16 | 2.72 ± 0.076 | 2.73 ± 0.17 | 2.68 ± 0.12
LTGNQLPTPTPTEMEPD [SWI1] | 2.67 ± 0.051 | 2.92 ± 0.052 | 2.51 ± 0.062 | 2.85 ± 0.03
LTHPKYLNSRIIPTTLE [YML103C/NUP188] | 2.1 ± 0.035 | 2.26 ± 0.041 | 2.05 ± 0.049 | 2.25 ± 0.036
LTNEISDLKGKLSSAEN [YIL149C/MLP2] | 3.38 ± 0.22 | 3.29 ± 0.13 |  | 3.32 ± 0.18
LTSFAEENNYQYGYSGS [SNF6] | 2.08 ± 0.064 | 2.22 ± 0.093 | 2.74 ± 0.11 | 2.48 ± 0.066
LTSVTNDICSVENYETS [SIR4] | 2.18 ± 0.052 | 2.35 ± 0.057 | 1.88 ± 0.062 | 1.84 ± 0.059
LTVDNLSIAIVGKDTPF [PRE5] | 2.9 ± 0.052 | 2.66 ± 0.05 | 2.62 ± 0.05 | 3 ± 0.037
LVDKRIDMLPMLLGTDL [DIS3] | 2.17 ± 0.083 | 2.54 ± 0.1 | 2.27 ± 0.08 | 2.34 ± 0.059
LVDQGFNYSGKDMLYSG [RET1] | 3.46 ± 0.084 | 3.29 ± 0.083 | 3.36 ± 0.052 | 3.52 ± 0.044
LVGSEIYEKLKNYLKNY [CDC53] |  | 1.21 ± 0.12 | 1.09 ± 0.16 | 
LVLPPVVTSSVAESFTD [SNF2] | 2.13 ± 0.047 | 2.02 ± 0.057 | 2.39 ± 0.084 | 2.32 ± 0.053
LVNGFSQSQQKLLKEKV [MED2] | 2.03 ± 0.055 | 2.27 ± 0.068 | 2.41 ± 0.066 | 2.61 ± 0.052

Sequence | protein stability index (doa10∆) | protein stability index (pdr5∆) | protein stability index (san1∆) | protein stability index (ubr1∆)
LVNIRTQTSKEQEIENN [ITC1] | 2.9 ± 0.054 | 3.05 ± 0.067 | 2.9 ± 0.061 | 3.06 ± 0.066
LVPPPRTIANQDHFHRL [RPR2] | 3.01 ± 0.086 | 3.15 ± 0.069 | 2.88 ± 0.051 | 2.93 ± 0.066
LVQKTVQESGNIDYQKG [GRR1] | 3.5 ± 0.1 | 3.37 ± 0.095 | 3.2 ± 0.09 | 3.23 ± 0.1
LVRSIIAFDDLIENKIQ [RPN8] | 1.94 ± 0.075 | 1.92 ± 0.12 | 2.45 ± 0.082 | 2.43 ± 0.099
LVSEKIINSTALMKEKD [RPC82] | 3.19 ± 0.17 | 3.11 ± 0.081 | 3.11 ± 0.084 | 3.27 ± 0.092
LVSVTSTLQHFQETLDS [MED8] | 2.4 ± 0.055 | 2.7 ± 0.063 | 2.43 ± 0.054 | 2.39 ± 0.048
LVVYAEDNGIVKALRNV [RPL4A] | 2.1 ± 0.14 | 3.16 ± 0.12 | 2.59 ± 0.086 | 2.57 ± 0.12
LVYDVKGRFAVHRITDE [RPS4A] | 3.25 ± 0.078 | 3.08 ± 0.11 | 3.46 ± 0.07 | 3.29 ± 0.068
LWRNFCRKLSFSDKVNA [ITC1] | 2.09 ± 0.19 | 1.76 ± 0.2 | 1.14 ± 0.23 | 1.37 ± 0.094
LYAVSTFENTNNTEKND [SIR4] | 2.37 ± 0.072 | 2.4 ± 0.075 | 2.5 ± 0.083 | 2.38 ± 0.057
LYQIWIVMVWLKENTYV [YDL116W/NUP84] | 1.85 ± 0.061 | 1.77 ± 0.062 | 2.11 ± 0.097 | 2.14 ± 0.046
LYQLFKTCIQGINSPLS [YJL039C/NUP192] | 1.83 ± 0.12 | 2.05 ± 0.087 | 1.64 ± 0.16 | 2.04 ± 0.11
LYRYRFDPFQAVSRSMT [ECM29] | 2.57 ± 0.067 | 2.65 ± 0.049 | 2.76 ± 0.057 | 2.74 ± 0.043
LYVPRKCSATNRIIKAD [RPS21A] | 3.08 ± 0.27 | 1.83 ± 0.2 | 2.13 ± 0.12 | 2.19 ± 0.15
LYYPQKPLGTTRAMEYL [RPB2] | 2.17 ± 0.089 | 2.9 ± 0.15 | 2.05 ± 0.14 | 2.83 ± 0.06
MAISKNLPILKNHFRKH [RPL13A] | 2.89 ± 0.1 | 2.89 ± 0.079 | 2.87 ± 0.081 | 2.54 ± 0.19
MAKCLDNPDQGISDMCR [YCS4] | 3.39 ± 0.19 | 3.55 ± 0.13 | 3.33 ± 0.13 | 3.2 ± 0.15
MANIPERIINVGVIGPL [SNU114] | 2.18 ± 0.28 | 2.79 ± 0.16 |  | 3.07 ± 0.077
MAPFRQDSILIIYPRSQ [ARP9] | 2.41 ± 0.28 | 2.69 ± 0.17 | 2.82 ± 0.083 | 2.58 ± 0.076
MAPSAKATAAKKAVVKG [RPL25] |  | 2.56 ± 0.15 |  | 
MAQNKTHIPQTNLKNHP [YLR018C/POM34] | 3.12 ± 0.082 | 2.98 ± 0.057 | 2.75 ± 0.058 | 2.85 ± 0.04
MASLPHPKIVKKHTKKF [RPL32] | 2.41 ± 0.088 | 2.97 ± 0.093 | 2.22 ± 0.088 | 2.83 ± 0.075
MASRVDETTVPSYYYYV [ROX3] | 1.48 ± 0.07 | 2.24 ± 0.05 | 1.94 ± 0.096 | 1.94 ± 0.069
MAVGKNKRLSKGKKGQK [RPS1A] | 1.5 ± 0.14 | 1.62 ± 0.086 | 1.65 ± 0.15 | 1.45 ± 0.12
MAYFDENLNRNWRGREH [BRN1] | 3.25 ± 0.099 | 3.41 ± 0.16 | 2.99 ± 0.091 | 3.14 ± 0.095
MDALTLMKCCHEAYSII [RRP45] | 1.77 ± 0.063 | 2.04 ± 0.071 | 1.84 ± 0.099 | 1.76 ± 0.12
MDIILGIRVQDSVILAS [PRE1] | 1.47 ± 0.23 | 1.62 ± 0.2 | 1.71 ± 0.24 | 1.4 ± 0.11
